Test results published in patent publication US20260242478A1 (published 2026).

B1: Phage-3051 (peptide)
peptide: PGQVCIPEWMCTGF
notes: Peptide-180 library clone, tested as clonal phage supernatant (peptide fused to pIII of the bacteriophage)
B2: Phage-3049 (peptide)
peptide: VNVKCTPPWMCFGF
notes: as for B1
B3: Phage-3057 (peptide)
peptide: TGPVCIPKWMCFGF
notes: as for B1
B4: Phage-3054 (peptide)
peptide: DWIRCLPAWMCTGF
notes: as for B1
B5: Phage-3056 (peptide)
peptide: IEMMCRPSWMCDWL
notes: as for B1
B6: Phage-3053 (peptide)
peptide: VAPSCVPLWMCVGM
notes: as for B1
B7: Phage-3059 (peptide)
peptide: EFAMCRPVWMCWGF
notes: as for B1
B8: Phage-3052 (peptide)
peptide: DMRLCRPVWMCEGF
notes: as for B1
B9: Phage-3050 (peptide)
peptide: ELYKCVPSWMCYGF
notes: as for B1
B10: Phage-3058 (peptide)
peptide: DWVRCVPEWMCLGF
notes: as for B1
B11: Phage-3055 (peptide)
peptide: PVELCRPAWMCWGF
notes: as for B1

Each binder was assayed against T1, 006 PSMA Fab (assay: clonal phage ELISA on biotinylated PSMA Fab captured on neutravidin, wells pre-incubated with PSMA antigen as competitor, anti-M13 HRP detection).
T1 construct: In the phage ELISA the Fab was biotinylated and captured on neutravidin coated plates; also called Anti-PSMA Fab
Method: (§1) Clonal phage were harvested as crude supernatants and screened via standard ELISAs. […] Prior to the addition of clonal phage. wells were incubated with blocking buffer and PSMA antigen or blocking buffer alone. Without washing or aspirating, clonal phage supernatants were then added to the wells and incubated for a short time. Wells were then washed followed by detection of bound phage using a horse radish conjugated anti-M13 antibody.

Binder	Phage binding ELISA signal, Anti-PSMA Fab with PSMA antigen
IMMRCEPVWMCEGF [Phage-3072]	0.118
VEIQCRPSWMCMGF [Phage-3063]	0.0951
SPYFCIPAWMCHGF [Phage-3071]	0.121
VQVLCVPSWMCHGF [Phage-3062]	0.0688
VERSCVPSWMCYGF [Phage-3066]	0.0806
EEKMCVPLWMCSGF [Phage-3060]	0.0787
VVPMCSPSWMCQGF [Phage-3064]	0.0725
WLMRCEPQWMCAGF [Phage-3073]	0.131
LSHMCRPAWMCEGF [Phage-3068]	0.0938
ITKACIPEWMCHAF [Phage-3061]	0.0651
ISPVCIPSWMCLGL [Phage-3069]	0.174
LLAECVAAWMCSGF [Phage-3067]	0.0712
GMVRCVPQWMCVGF [Phage-3065]	0.111
LEKACVPQWMCYGL [Phage-3070]	0.0938

The binders below were run against T2, PSMA Fab (006 PSMA Fab) (assay: phage ELISA; biotinylated PSMA Fab on neutravidin plate pre-incubated with PSMA antigen as competitor, clonal phage supernatant, anti-M13 HRP detection).
T2 construct: also called Anti-PSMA Fab; anti-PSMA Fab
Method: as §1

Binder	Phage binding ELISA signal, Anti-PSMA Fab in the presence of PSMA antigen
B1	0.0874
B2	0.0865
B3	0.075
B4	0.0848
B5	0.0844
B6	0.68
B7	0.142
B8	0.13
B9	0.0696
B10	0.106
B11	0.103

What follows are binders tested against T3, PSMA Fab (006 PSMA Fab) (Fab biotinylated for capture on neutravidin plates (site not stated)) (assay: phage ELISA: clonal phage supernatant on biotinylated PSMA Fab captured on neutravidin plate, blocking buffer alone, anti-M13-HRP detection).
T3 construct: also called Anti-PSMA Fab; anti-PSMA Fab

Binder	Phage binding ELISA signal, Anti-PSMA Fab
DGPLCVPQWMCLWL [Phage-3082 (peptide-180 library clone)]	2.11
LEHMCRPSWMCTGF [Phage-3085 (peptide-180 library clone)]	2.1
EWMKCVPLWMCEGI [Phage-3080 (peptide-180 library clone)]	2.11
GQNLCIPSWMCEGF [Phage-3083 (peptide-180 library clone)]	2.11
DEWICRPAWMCQGF [Phage-3076 (peptide-180 library clone)]	2.12
YEQLCKPLWMCQGF [Phage-3075 (peptide-180 library clone)]	2.12
VNHLCKPTWMCAGF [Phage-3077 (peptide-180 library clone)]	2.12
LDAMCRPLWMCSGF [Phage-3084 (peptide-180 library clone)]	2.11
TDHLCVPSWMCLGF [Phage-3081 (peptide-180 library clone)]	2.11
VDLICRPAWMCSGF [Phage-3087 (peptide-180 library clone)]	2.1
HLMACKPAWMCLGL [Phage-3079 (peptide-180 library clone)]	2.11
FWAQCVPPWMCSGF [Phage-3086 (peptide-180 library clone)]	2.1
TYMMCVPEWMCQGF [Phage-3078 (peptide-180 library clone)]	2.11
TASWCKPGGACKGF [Phage-3074 (peptide-180 library clone)]	2.12

These binders were tested against T2, PSMA Fab (006 PSMA Fab) (assay: phage ELISA; biotinylated PSMA Fab on neutravidin plate, clonal phage supernatant, anti-M13 HRP detection; blocking buffer alone).
Method: as §1

Binder	Phage binding ELISA signal, Anti-PSMA Fab
B1	2.16
B2	2.16
B3	2.15
B4	2.16
B5	2.16
B6	2.16
B7	2.15
B8	2.16
B9	2.16
B10	2.15
B11	2.16

The binders below were run against T3, PSMA Fab (006 PSMA Fab) (assay: phage ELISA: clonal phage supernatant on biotinylated PSMA Fab captured on neutravidin plate, wells pre-incubated with PSMA antigen as competitor, anti-M13-HRP detection).
Method: as §1

Binder	Phage binding ELISA signal, Anti-PSMA Fab in presence of PSMA
DGPLCVPQWMCLWL [Phage-3082 (peptide-180 library clone)]	0.0699
LEHMCRPSWMCTGF [Phage-3085 (peptide-180 library clone)]	0.0798
EWMKCVPLWMCEGI [Phage-3080 (peptide-180 library clone)]	0.0802
GQNLCIPSWMCEGF [Phage-3083 (peptide-180 library clone)]	0.08
DEWICRPAWMCQGF [Phage-3076 (peptide-180 library clone)]	0.0632
YEQLCKPLWMCQGF [Phage-3075 (peptide-180 library clone)]	0.0628
VNHLCKPTWMCAGF [Phage-3077 (peptide-180 library clone)]	0.0765
LDAMCRPLWMCSGF [Phage-3084 (peptide-180 library clone)]	0.0799
TDHLCVPSWMCLGF [Phage-3081 (peptide-180 library clone)]	0.0801
VDLICRPAWMCSGF [Phage-3087 (peptide-180 library clone)]	0.0726
HLMACKPAWMCLGL [Phage-3079 (peptide-180 library clone)]	0.135
FWAQCVPPWMCSGF [Phage-3086 (peptide-180 library clone)]	0.199
TYMMCVPEWMCQGF [Phage-3078 (peptide-180 library clone)]	0.101
TASWCKPGGACKGF [Phage-3074 (peptide-180 library clone)]	0.0801

The binders below were run against T1, 006 PSMA Fab (assay: clonal phage ELISA on biotinylated PSMA Fab captured on neutravidin, anti-M13 HRP detection, no competitor).
Method: as §1

Binder	Phage binding ELISA signal, Anti-PSMA Fab
IMMRCEPVWMCEGF [Phage-3072]	2.13
VEIQCRPSWMCMGF [Phage-3063]	2.14
SPYFCIPAWMCHGF [Phage-3071]	2.13
VQVLCVPSWMCHGF [Phage-3062]	2.15
VERSCVPSWMCYGF [Phage-3066]	2.14
EEKMCVPLWMCSGF [Phage-3060]	2.15
VVPMCSPSWMCQGF [Phage-3064]	2.14
WLMRCEPQWMCAGF [Phage-3073]	2.12
LSHMCRPAWMCEGF [Phage-3068]	2.13
ITKACIPEWMCHAF [Phage-3061]	2.15
ISPVCIPSWMCLGL [Phage-3069]	2.13
LLAECVAAWMCSGF [Phage-3067]	2.13
GMVRCVPQWMCVGF [Phage-3065]	2.14
LEKACVPQWMCYGL [Phage-3070]	2.13

What follows are binders tested against T4, 006 PSMA Fab (assay: clonal phage ELISA on captured PSMA Fab pre-incubated with PSMA antigen as competitor, anti-M13 HRP detection;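 note: crude clonal phage supernatants tested by ELISA, wells first treated with blocking buffer plus PSMA antigen, bound phage read out via HRP-linked anti-M13 antibody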).
T4 construct: In the panning ELISA the PSMA Fab was biotinylated and captured on neutravidin coated plates; also called Anti-PSMA Fab; anti-PSMA Fab
Method: as §1

Binder	Phage binding ELISA signal, Anti-PSMA Fab in the presence of PSMA antigen
VVPRCEPMWMCQGF [Phage-3088]	0.0982
TGAICVPEWMCMGF [Phage-3092]	0.0934
VSIMCTPLWMCEGF [Phage-3090]	0.0782
TELACKPLWMCNGF [Phage-3091]	0.0691
TDQLCKPLWMCTGF [Phage-3089]	0.0815

These binders were tested against T4, 006 PSMA Fab (assay: clonal phage ELISA on biotinylated PSMA Fab captured on neutravidin plates, anti-M13 HRP detection;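 note: crude clonal phage supernatants tested, before phage were added, wells were pretreated with PSMA antigen in blocking buffer or with blocking buffer only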).
Method: as §1

Binder	Phage binding ELISA signal, Anti-PSMA Fab
VVPRCEPMWMCQGF [Phage-3088]	2.1
TGAICVPEWMCMGF [Phage-3092]	2.1
VSIMCTPLWMCEGF [Phage-3090]	2.1
TELACKPLWMCNGF [Phage-3091]	2.1
TDQLCKPLWMCTGF [Phage-3089]	2.1
